Source: patent publication US20130251724A1 (GlaxoSmithKline, published 2013)
Numbering of substitutions follows the chain as printed. In names and notes the source's numbering stands. Several values for one entry are separate records, joined by “and”; a condition that tells them apart may be missing. Equal values may be shown once.

T1: Human OSM (human, UniProt P13725 26-221)
T1 sequence: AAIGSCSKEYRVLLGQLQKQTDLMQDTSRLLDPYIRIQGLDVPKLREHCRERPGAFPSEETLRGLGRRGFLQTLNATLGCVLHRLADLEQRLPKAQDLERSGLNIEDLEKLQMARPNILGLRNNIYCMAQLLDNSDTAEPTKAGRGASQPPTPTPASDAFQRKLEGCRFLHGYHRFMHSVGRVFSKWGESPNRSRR

T2: Cynomolgus OSM (cynomolgus, UniProt A0A2K5VPC6 26-221)
T2 sequence: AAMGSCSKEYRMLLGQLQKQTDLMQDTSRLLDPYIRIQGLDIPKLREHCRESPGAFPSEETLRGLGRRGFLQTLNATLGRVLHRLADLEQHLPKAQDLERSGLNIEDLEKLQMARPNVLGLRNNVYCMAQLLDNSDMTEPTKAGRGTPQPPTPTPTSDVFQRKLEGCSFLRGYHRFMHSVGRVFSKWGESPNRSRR

B1: Humanised 10G8 H1L1 (antibody, V domains shown)
VH: EMQLVESGGGLVQPGGSLRLSCAASGFTFSNYAMSWVRQAPGKGLEWVATISDGGSFTYYLDNVRGRFTISRDNAKNSLYLQMNSLRAEDTAVYYCARDVGHTTFWYFDVWGRGTLVTVSS
VL: DIVMTQSPDSLAVSLGERATINCRASKSVSAAGYNFMHWYQQKPGQPPKVLIYYASNLESGVPDRFSGSGSGTDFTLTISSLQAEDVAVYYCLHSREFPFTFGGGTKVEIK
B2: Humanised 10G8 H2L4 (antibody, V domains shown)
VH: B1 VH with M2V, R113S
VL: B1 VL with A88V, K107N
B3: Humanised 10G8 H1L4 (antibody, V domains shown)
VH: B1 VH
VL: B1 VL with A88V, K107N
B4: Humanised 10G8 H2L1 (antibody, V domains shown)
VH: B1 VH with M2V, R113S
VL: B1 VL
B5: Humanised 10G8 H0L4 (antibody, V domains shown)
VH: B1 VH with M2V
VL: B1 VL with A88V, K107N
B6: 3E3, murine anti-OSM mAb (antibody, V domains shown)
VH: EVQLVESGGDLVKPGGSLKLSCVPSGFTFSSYAMSWVRQTPEKRLEWVATISDGGSFTYYFANIQGRFTISRDNTKNNLYLQMNHLKSEDAGMYYCARDVGLTTFWYFDVWGTGTTVTVSS
VL: DIVLTQSPASLTISLGQRATISCRASKSVSPSGYDFMHWYQQKPGQPPKLLIKYASELESGVPGRFSGSGSGTDFTLNIHPVEEEDAATYFCQHSREFPFTFGGGTKLEIK
notes: Mouse hybridoma mAb; also called 3E3/A1; 3E3.A1
B7: Humanised 10G8 H0L1(IGKV4-1) (antibody, V domains shown)
VH: B1 VH with M2V
VL: B1 VL with Y54W, N57T, L58R
notes: built from the stated exchange of CDRL2; residue limits derived by me; Human gamma 1/kappa constant regions; also called H0L1(huCDRL2)
B8: Humanised 10G8 H0(IGHV3-23)L1(IGK4-1) (antibody, V domains shown)
VH: B1 VH with M2V, N31S
VL: B1 VL with Y54W, N57T, L58R
notes: built from the stated exchange of CDRL2; residue limits derived by me; also called H0 IGHV3_23 + L1 IGKV4_1; H0(huCDRH1)L1(huCDRL2)
B9: Pos 98 Met (antibody, V domains shown)
VH: B1 VH with M2V, N31S, H102M
VL: DIVMTQSPDSLAVSLGERATINCRASKSVSAAGYNFMHWYQQKPGQPPKVLIYYASNLESGVPDRFSGSGSGTDFTLTISSLQAEDVAVYYCLHSREFPFTFGGGTKVEIKR
notes: also called CDRH3 H98>M
B10: Pos 100B Met (antibody, V domains shown)
VH: B1 VH with M2V, N31S, W106M
VL: B9 VL
notes: also called CDRH3 W100B>M
B11: Pos 99 His (antibody, V domains shown)
VH: B1 VH with M2V, N31S, T103H
VL: B9 VL
notes: also called CDRH3 T99>H
B12: Pos 99 Met (antibody, V domains shown)
VH: B1 VH with M2V, N31S, T103M
VL: B9 VL
notes: also called CDRH3 T99>M
B13: Pos 100B His (antibody, V domains shown)
VH: B1 VH with M2V, N31S, W106H
VL: B9 VL
notes: also called CDRH3 W100B>H

biological target: T1, Human OSM; experiment: cell-based or functional assay

KB cell neutralisation assay, mean IC50	Binder
0.013 µg/ml and 83 pM	B1
0.022 µg/ml and 147 pM	B2
0.016 µg/ml and 107 pM	B3
0.014 µg/ml and 93 pM	B4
0.018 µg/ml and 118 pM	B5

biological target: T2, Cynomolgus OSM; experiment: cell-based or functional assay

KB cell neutralisation assay, mean IC50	Binder
0.01 µg/ml and 67 pM	B1
0.016 µg/ml and 58 pM	B2
0.011 µg/ml and 10 pM	B3
0.013 µg/ml and 14 pM	B4
0.012 µg/ml and 49 pM	B5

biological target: T1, Human OSM; experiment: human gp130 ELISA, inhibition of OSM binding to gp130

IC50	Binder
0.19 µg/mL and 1.3 nM	B6

biological target: T2, Cynomolgus OSM; experiment: as above

IC50	Binder
0.06 µg/mL and 0.4 nM	B6

biological target: T1, Human OSM; experiment: BIAcore kinetics, transfection supernatant

Kd [pM]	koff [s⁻¹]	kon [M⁻¹ s⁻¹]	Binder
1370	0.000221	161000	B7
1560	0.000247	159000	B8

biological target: T2, Cynomolgus OSM; experiment: BIAcore kinetics, transfection supernatant

Kd [pM]	koff [s⁻¹]	kon [M⁻¹ s⁻¹]	Binder
1410	0.000212	150000	B7
1470	0.000223	152000	B8

biological target: T1, Human OSM; experiment: cell-based or functional assay; remark: another data set of the same source

KB cell neutralisation assay, mean IC50	Binder
0.054 µg/ml and 360 pM	B6

biological target: T2, Cynomolgus OSM; experiment: cell-based or functional assay; remark: another data set of the same source

KB cell neutralisation assay, mean IC50	Binder
0.15 µg/ml and 1 nM	B6

biological target: T1, Human OSM; experiment: BIAcore kinetics, purified antibody

Kd [pM]	koff [s⁻¹]	kon [M⁻¹ s⁻¹]	Binder
443	0.000166	375000	B1
356	0.000135	380000	B2
370	0.000135	365000	B3
365	0.00014	383000	B4
374	0.00014	374000	B5

biological target: T2, Cynomolgus OSM; experiment: BIAcore kinetics, purified antibody

Kd [pM]	koff [s⁻¹]	kon [M⁻¹ s⁻¹]	Binder
258	0.00011	428000	B1
205	9.01e-05	441000	B2
264	0.000111	421000	B3
299	0.000124	414000	B4
242	0.000101	418000	B5

biological target: T1, Human OSM; experiment: BIAcore kinetics

Kd [pM]	Binder
1300	B6

biological target: T2, Cynomolgus OSM; experiment: BIAcore kinetics

Kd [pM]	Binder
3280	B6

biological target: T1, Human OSM; experiment: SPR (ProteOn XPR36 or Biacore T100), captured supernatant, OSM as analyte; hatched cell: separate experiment
Method: The initial kinetic analyses for the CDRH3 screen were carried out on the ProteOn XPR36 (Biorad Laboratories) and certain supernatants were selected for more accurate kinetic analysis on the BiaCore T100.
For the ProteOn analysis, anti-human IgG (GE Healthcare/Biacore BR-1008-39) was coupled to a GLM chip (Biorad Laboratories 176-5012) by primary amine coupling. The CDRH3 variants were captured directly on to this surface and recombinant human OSM was passed over the captured antibody surface at 256, 64, 16, 4 and 1 nM, with a buffer injection alone (i.e. 0 nM) used to double reference the binding curves. Following the OSM binding event, the capture surfaces were regenerated: with 3M MgCl₂ the regeneration removed the previously captured antibody ready for another cycle of capture and binding analysis. The data was then fitted to the 1:1 model (with mass transport) inherent to the ProteOn analysis software. The run was carried out using HBS-EP (Biacore/GE-Healthcare BR-1006-69) and the analysis temperature was 25° C.
A similar method was used for analysis of constructs using the Biacore T100, anti-human IgG (GE Healthcare/Biacore BR-1008-39) was coupled to a CM5 chip (GE Healthcare/Biacore BR-1006-68) by primary amine coupling, antibodies were captured on this surface and recombinant human OSM was passed over the captured antibody surface at 256, 64, 16, 4 and 1 nM, with a buffer injection alone (i.e. 0 nM) used to double reference the binding curves. Regeneration was by using pulses of 3M 3M MgCl₂ or 100 mM phosphoric acid or using both reagents. The data was fitted to the 1:1 model inherent to the Biacore T100 analysis software. The run was carried out using HBS-EP (Biacore/GE-Healthcare BR-1006-69) and the analysis temperature was 25° C.

Kd [pM]	Binder
6930	B9
40300	B10
15600	B11
1620	B12
36200	B13

biological target: T1, Human OSM; experiment: BIAcore kinetics, transfection supernatant; remark: another data set of the same source

Kd [pM]	koff [s⁻¹]	kon [M⁻¹ s⁻¹]	Binder
250	9.99e-05	400000	B1
226	0.000101	448000	B2
344	0.00013	377000	B3
286	0.000113	394000	B4
268	0.000111	413000	B5

biological target: T1, Human OSM; experiment: cell-based or functional assay; remark: another data set of the same source

KB cell neutralisation assay, mean IC50	Binder
0.054 µg/ml and 360 pM	B7
0.077 µg/ml and 513 pM	B8

biological target: T2, Cynomolgus OSM; experiment: cell-based or functional assay; remark: another data set of the same source

KB cell neutralisation assay, mean IC50	Binder
0.081 µg/ml and 540 pM	B7
0.114 µg/ml and 760 pM	B8
